Laboratory results from the supplement of paper PMC7125110.
± gives the standard error. For some assays here: This sample holds only a part of the variants without activity.

B1: glmS ribozyme (parent)
chain: AUAAAAGCGCCAGAACUACAGAAAUGUAGUUGACGAGGAGGAGGUUUAUCGAAUUUUCGGCGGAUGCCUCCAAA

Legend:
Conditions in all cases: with glucosamine-6-phosphate
[1] = variants of: B1; test: kcat; higher = faster cleavage; RNA array
In short: (§1)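 Glucosamine-6-phosphate in HEPES/KCl/Mg(OAc)2 buffer, at 40 μM to 10 mM, was flowed over barcoded ribozyme variants transcribed in situ by E. coli RNA polymerase on sequenced MiSeq chips. Tracking was through a hybridised Cy3 probe at 37 °C. kobs, kcat and KM came from exponential decay fits and weighted Michaelis–Menten fits of normalised per-tile medians.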

[2] = variants of: B1; test: self-cleavage kobs at 40 uM GlcN6P; higher = faster cleavage; RNA array
In short: as §1

[3] = variants of: B1; test: self-cleavage kobs at 10000 uM GlcN6P; higher = faster cleavage; RNA array
In short: as §1

[4] = variants of: B1; test: KM; higher = weaker cofactor use; RNA array
In short: as §1

[5] = variants of: B1; test: self-cleavage kobs at 640 uM GlcN6P; higher = faster cleavage; RNA array
In short: as §1

[6] = variants of: B1; test: self-cleavage kobs at 2500 uM GlcN6P; higher = faster cleavage; RNA array
In short: as §1

[7] = variants of: B1; test: self-cleavage kobs at 160 uM GlcN6P; higher = faster cleavage; RNA array
In short: as §1

| Variant | kcat [1] [s⁻¹] | self-cleavage kobs at 40 uM GlcN6P [2] [s⁻¹] | self-cleavage kobs at 10000 uM GlcN6P [3] [s⁻¹] | KM [4] [µM] | self-cleavage kobs at 640 uM GlcN6P [5] [s⁻¹] | self-cleavage kobs at 2500 uM GlcN6P [6] [s⁻¹] | self-cleavage kobs at 160 uM GlcN6P [7] [s⁻¹] |
| --- | --- | --- | --- | --- | --- | --- | --- |
| A48U G51A | 1.23e-05 ± 5.9e-06 | < 1e-05 | < 1e-05 | – | – | – | – |
| A33U A52U | 1.29e-05 ± 2.5e-06 | – | – | 8300 ± 3400 | – | – | – |
| G26U C67G | 0.000379 ± 7.2e-05 | – | 0.000395 ± 0.00012 | 901 ± 420 | 0.000245 ± 8.1e-05 | 0.000254 ± 5.2e-05 | – |
| A14U C70G | 0.000149 ± 3.1e-05 | – | – | – | 8.73e-05 ± 9.3e-06 | 0.000147 ± 1.8e-05 | 5.56e-05 ± 7.3e-06 |
| G32U C70A | 4.97e-05 ± 4.6e-06 | – | 4.67e-05 ± 6.5e-06 | – | 4.67e-05 ± 1.8e-05 | 5.83e-05 ± 1.3e-05 | – |
| G51U U57G | < 1e-05 | – | < 1e-05 | – | – | – | – |
| G29U G41U | 8.68e-05 ± 1.2e-05 | – | 7.94e-05 ± 2.1e-05 | 651 ± 270 | 5.08e-05 ± 1.6e-05 | 6.65e-05 ± 2.9e-05 | – |
| G29U C71G | 0.000186 ± 4.6e-05 | 3.23e-05 ± 9.4e-06 | 0.000186 ± 1.9e-05 | – | 8.34e-05 ± 7.2e-06 | 0.000186 ± 2.6e-05 | 6.19e-05 ± 9.3e-06 |
| G37A C67G | 1.61e-05 ± 2e-06 | – | – | – | – | – | – |
| C11U U54C | 0.00157 ± 0.00021 | 6.42e-05 ± 1.2e-05 | 0.00167 ± 0.00033 | 990 ± 210 | 0.000616 ± 0.00017 | 0.00092 ± 0.00024 | 0.000204 ± 9.2e-05 |
| A33C U45A | 0.000472 ± 1.3e-05 | – | 0.00035 ± 5.3e-05 | 3500 ± 180 | 7.41e-05 ± 1.9e-05 | 0.000197 ± 2.9e-05 | – |
| A15G C67A | 0.00627 ± 0.0024 | 0.000534 ± 0.00011 | 0.00896 ± 0.0018 | – | 0.00406 ± 0.0007 | 0.00376 ± 0.00071 | 0.000961 ± 0.00011 |
| C58A C61U | < 1e-05 | – | – | – | – | – | – |
| C58A C61G | 1.62e-05 ± 5.8e-06 | – | – | – | – | – | – |
| G66U C67U | 0.000913 ± 3.1e-05 | 3.44e-05 ± 7.1e-06 | 0.000831 ± 7.9e-05 | 1130 ± 66 | 0.000333 ± 4.2e-05 | 0.000607 ± 8.4e-05 | 0.00011 ± 1.3e-05 |
| G13U C70A | 3.03e-05 ± 5.4e-06 | – | 2.01e-05 ± 1e-05 | – | 3.7e-05 ± 1.1e-05 | 3.54e-05 ± 9.8e-06 | – |
| G41C C58U | < 1e-05 | < 1e-05 | < 1e-05 | – | – | – | < 1e-05 |
| G37A U54C | 0.00259 ± 0.00054 | 4.82e-05 ± 1.6e-05 | 0.00192 ± 0.00042 | 3190 ± 910 | 0.000375 ± 8.4e-05 | 0.00127 ± 0.00026 | 0.000124 ± 2.7e-05 |
